Experimental data published in patent publication US20230383012A1 (published 2023).
One block for each binder: values may come before it.

How the values were obtained:
human CD28 antigen = human CD28 antigen (human, UniProt P10747 19-152); assay: Octet; VHVL
Cyno PDL1 = assay: Biacore; EXP1
Human PDL1 = Human PDL1 (human, UniProt Q9NZQ7 19-238); assay: Biacore; EXP1
XPL2-BC-12B9-hIgG1 = assay: Biacore
XPL2-BC-12B12-hIgG1 = assay: Biacore
XPL2-BC-7B10-hIgG1 = assay: Biacore
XPL2-BC-8H8-hIgG1 = assay: Biacore
XPL2-BC-10H5-hIgG1 = assay: Biacore
XPL2-BC-12B7-hIgG1 = assay: Biacore
XPL2-BC-8G2-hIgG1 = assay: Biacore
XPL2-BC-8F4-hIgG1 = assay: Biacore
XPL2-BC-5F2-hIgG1 = assay: Biacore
XPL2-BC-8G5-hIgG1 = assay: Biacore
XPL2-BC-12A11-hIgG1 = assay: Biacore
XPL2-BC-12B2-hIgG1 = assay: Biacore
XPL2-BC-8H11-hIgG1 = assay: Biacore
XPL2-BC-6H10-hIgG1 = assay: Biacore
XPL2-BC-5C11-hIgG1 = assay: Biacore
XPL2-BC-7E9-hIgG1 = assay: Biacore
XPL2-BC-1G10-hIgG1 = assay: Biacore
XPL2-BC-3A9-hIgG1 = assay: Biacore
XPL2-BC-9H4-hIgG1 = assay: Biacore
XPL2-BC-7D3-hIgG1 = assay: Biacore
XPL2-BC-5F1-hIgG1 = assay: Biacore
XPL2-BC-7D1-hIgG1 = assay: Biacore
XPL2-BC-12A6-hIgG1 = assay: Biacore
XPL2-BC-13G1-hIgG1 = assay: Biacore
XPL2-BC-16G11-hIgG1 = assay: Biacore
XPL2-BC-1E12-hIgG1 = assay: Biacore
XPL2-BC-5B6-hIgG1 = assay: Biacore

Kd (human CD28 antigen): 96 nM
B1: H1.1_L1.71 (antibody, V domains shown)
VH: EVQLLESGGGLVQPGGSLRLSCAASGFTFPSRDMSWVRQAPGKRLEWVSTISSGGSFTHYPDSVKGRFTISRDNSKNTLYLQMNSLRAEDTAVYYCVRRSGDWYFDVWGAGTTVTVSS
VL: EIVLTQSPGTLSLSPGERATLSCRVSSSIQSTNLHWYQQKPGQSPRPLIYGTSTLATGVPVRFSGSGSGTDYTLTISRLEPEDFAVYYCQQWSSYPLYTFGGGTKVEIK

Kd (human CD28 antigen): 1000 nM
B2: H1L1 (antibody, V domains shown)
VH: EVQLLESGGGLVQPGGSLRLSCAASGFTFSSYDMSWVRQAPGKRLEWVSTISSGGSFTHYPDSVKGRFTISRDNSKNTLYLQMNSLRAEDTAVYYCVRRSGDWYFDVWGAGTTVTVSS
VL: EIVLTQSPGTLSLSPGERATLSCRVSSSISSSNLHWYQQKPGQSPRPLIYGTSNLASGVPVRFSGSGSGTDYTLTISRLEPEDFAVYYCQQWSSYPLYTFGGGTKVEIK

Kd (human CD28 antigen): 180 nM
B3: H1_L1.71 (antibody, V domains shown)
VH: EVQLLESGGGLVQPGGSLRLSCAASGFTFSSYDMSWVRQAPGKRLEWVSTISSGGSFTHYPDSVKGRFTISRDNSKNTLYLQMNSLRAEDTAVYYCVRRSGDWYFDVWGAGTTVTVSS
VL: EIVLTQSPGTLSLSPGERATLSCRVSSSIQSTNLHWYQQKPGQSPRPLIYGTSTLATGVPVRFSGSGSGTDYTLTISRLEPEDFAVYYCQQWSSYPLYTFGGGTKVEIK

Kd (human CD28 antigen): 600 nM
B4: H1.1_L1 (antibody, V domains shown)
VH: EVQLLESGGGLVQPGGSLRLSCAASGFTFPSRDMSWVRQAPGKRLEWVSTISSGGSFTHYPDSVKGRFTISRDNSKNTLYLQMNSLRAEDTAVYYCVRRSGDWYFDVWGAGTTVTVSS
VL: EIVLTQSPGTLSLSPGERATLSCRVSSSISSSNLHWYQQKPGQSPRPLIYGTSNLASGVPVRFSGSGSGTDYTLTISRLEPEDFAVYYCQQWSSYPLYTFGGGTKVEIK

Kd (Cyno PDL1): 2.2 nM
Kd (Human PDL1): 2.6 nM
B5: XENP 37559 (H1L1) (bispecific antibody)
chain 1: EVQLLESGGGLVQPGGSLRLSCAASGFTFSSYDMSWVRQAPGKRLEWVSTISSGGSFTHYPDSVKGRFTISRDNSKNTLYLQMNSLRAEDTAVYYCVRRSGDWYFDVWGAGTTVTVSSASTKGPSVFPLAPSSKSTSGGTAALGCLVKDYFPEPVTVSWNSGALTSGVHTFPAVLQSSGLYSLSSVVTVPSSSLGTQTYICNVNHKPSDTKVDKKVEPKSCDKTHTCPPCPAPPVAGPSVFLFPPKPKDTLMISRTPEVTCVVVDVKHEDPEVKFNWYVDGVEVHNAKTKPREEEYNSTYRVVSVLTVLHQDWLNGKEYKCKVSNKALPAPIEKTISKAKGQPREPQVYTLPPSREEMTKNQVSLTCDVSGFYPSDIAVEWESDGQPENNYKTTPPVLDSDGSFFLYSKLTVDKSRWEQGDVFSCSVMHEALHNHYTQKSLSLSPGK
chain 2: not shown
chain 3: EIVLTQSPGTLSLSPGERATLSCRVSSSISSSNLHWYQQKPGQSPRPLIYGTSNLASGVPVRFSGSGSGTDYTLTISRLEPEDFAVYYCQQWSSYPLYTFGGGTKVEIKRTVAAPSVFIFPPSDEQLKSGTASVVCLLNNFYPREAKVQWKVDNALQSGNSQESVTEQDSKDSTYSLSSTLTLSKADYEKHKVYACEVTHQGLSSPVTKSFNRGEC

Kd (XPL2-BC-12B9-hIgG1): 5.88 nM
Kd (XPL2-BC-12B12-hIgG1): 73.7 nM
Kd (XPL2-BC-7B10-hIgG1): 1.77 nM
Kd (XPL2-BC-8H8-hIgG1): 3.75 nM
Kd (XPL2-BC-10H5-hIgG1): 64.9 nM
Kd (XPL2-BC-12B7-hIgG1): 8.44 nM
Kd (XPL2-BC-8G2-hIgG1): 0.39 nM
Kd (XPL2-BC-8F4-hIgG1): 7.13 nM
Kd (XPL2-BC-5F2-hIgG1): 11.6 nM
Kd (XPL2-BC-8G5-hIgG1): 1.09 nM
Kd (XPL2-BC-12A11-hIgG1): 21.8 nM
Kd (XPL2-BC-12B2-hIgG1): 15.1 nM
Kd (XPL2-BC-8H11-hIgG1): 0.525 nM
Kd (XPL2-BC-6H10-hIgG1): 6.02 nM
Kd (XPL2-BC-5C11-hIgG1): 1.77 nM
Kd (XPL2-BC-7E9-hIgG1): 0.25 nM
Kd (XPL2-BC-1G10-hIgG1): 5.87 nM
Kd (XPL2-BC-3A9-hIgG1): 192 nM
Kd (XPL2-BC-9H4-hIgG1): 73.2 nM
Kd (XPL2-BC-7D3-hIgG1): 1.49 nM
Kd (XPL2-BC-5F1-hIgG1): 12.5 nM
Kd (XPL2-BC-7D1-hIgG1): 5.66 nM
Kd (XPL2-BC-12A6-hIgG1): 303 nM
Kd (XPL2-BC-13G1-hIgG1): 5.1 nM
Kd (XPL2-BC-16G11-hIgG1): 0.491 nM
Kd (XPL2-BC-1E12-hIgG1): 80.7 nM
Kd (XPL2-BC-5B6-hIgG1): 0.765 nM
B6: PDL2 (ligand)
chain: LFTVTVPKELYIIEHGSNVTLECNFDTGSHVNLGAITASLQKVENDTSPHRERATLLEEQLPLGKASFHIPQVQVRDEGQYQCIIIYGVAWDYKYLTLKVKASYRKINTHILKVPETDEVELTCQATGYPLAEVSWPNVSVPANTSHSRTPEGLYQVTSVLRLKPPPGRNFSCVFWNTHVRELTLASIDLQSQMEPRTHPT
